The test concerns the target EBOV GP ectodomain, mucin-like domain deleted (EBOV GP[change] ectodomain), Mayinga, residues 33-651, double Strep-tag (Zaire ebolavirus (EBOV), Mayinga) (UniProt Q05320). As to the kind of experiment: cryo-EM structure.

The values that follow come from article doi:10.1101/2024.06.21.600001.

For the substance “EBOV GP ectodomain, mucin-like domain deleted (EBOV GP[change] ectodomain), Mayinga, residues 33-651, double Strep-tag (from UniProt Q05320 33-651) (domain or fragment)”, the stoichiometry N was found to be 3.
